# Measurements as given in publication PMC4303326.
# T1: gene 32 protein (g32p), full-length (bacteriophage T4, UniProt P03695 1-301)
# T1 sequence: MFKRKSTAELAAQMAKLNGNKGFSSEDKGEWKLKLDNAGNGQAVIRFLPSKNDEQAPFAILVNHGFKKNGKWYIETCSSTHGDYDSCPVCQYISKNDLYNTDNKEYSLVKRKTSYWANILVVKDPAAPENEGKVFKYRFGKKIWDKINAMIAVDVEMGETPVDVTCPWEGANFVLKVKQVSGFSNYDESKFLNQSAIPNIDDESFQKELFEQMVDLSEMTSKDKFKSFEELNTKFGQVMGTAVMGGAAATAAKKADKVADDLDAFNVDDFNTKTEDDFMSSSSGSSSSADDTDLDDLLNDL
# B1: (dT)21/(dA)21 duplex (dsDNA)
# DNA 1: TTTTTTTTTTTTTTTTTTTTT
# DNA 2: AAAAAAAAAAAAAAAAAAAAA
# modifications: 5' thiol; 3' methylene blue on dT strand
# Tests used:
# Test in all cases: electrochemical DNA sensor
# [1] = target: T1, gene 32 protein (g32p), full-length
# thrombin = thrombin (bovine, UniProt P00735;P00735 318-366;367-625)
# [2] = target: T1, gene 32 protein (g32p), full-length; remark: listed apart in the source
Binder,Kd [1],binding result (thrombin),binding result [2]
"TTTTTTTTTTTTTTTTTTTTT (ssDNA, 5' thiol; 3' methylene blue) [(dT)21 probe]",~100 nM,no binding,
B1,,,no binding
